Reference: PMC8265671

Biological target: FLAG-tagged TgMLC1 C(8,11)S (Toxoplasma gondii)
Assay: co-IP; anti-FLAG M2 affinity resin, Triton X-100 extract of parasites in FLAG lysis buffer (10 mM imidazole pH 7.4, 300 mM NaCl, 1 mM EGTA, 5 mM MgCl2, 1% TX-100, 2 mM DTT, 2 mM ATP), overnight at 4°C, eluted with FLAG peptide, quantitative Western blotting

## TgMyoA (Toxoplasma gondii class XIVa myosin heavy chain) (from UniProt O00934 1-831)
  fold increase in the amount recovered, against WT TgMLC1: 2 to 3 fold

## TgELC1 (Toxoplasma gondii essential light chain 1) (natural protein)
  fold increase in the amount recovered, against WT TgMLC1: 2 to 3 fold
